The record followed here is patent publication US20220033470A1.

Experiment [1] has as its target human insulin receptor (human) (UniProt P06213). The experiment is described as follows: SPR (Biacore), soluble sortilin 50-500 nM over immobilized human insulin receptor. (In general: SPR reads the build-up and loss of mass on a sensor chip optically.)
Experiment [2] addresses murine insulin receptor (murine) (UniProt P15208). The experiment is described as follows: SPR (Biacore), soluble sortilin 50-500 nM over immobilized murine insulin receptor.
In experiment [3] the target is human insulin receptor (human) (UniProt P06213). The experiment is described as follows: Surface plasmon resonance (Biacore); human insulin receptor immobilized (0.0609 pmol/mm^2), sortilin injected at 50-500 nM, CaHBS buffer.
In experiment [4] the target is murine insulin receptor (murine) (UniProt P15208). The experiment is described as follows: Surface plasmon resonance (Biacore); murine insulin receptor (mIR) immobilized (0.0607 pmol/mm^2), sortilin injected at 50-500 nM, CaHBS buffer.

A word on the Kd: it is a measure of binding affinity in units of concentration. A high value points to lower affinity. Regarding “Soluble sortilin (from UniProt Q99523 78-755) (receptor)”, the Kd in experiment [1] turned out to be 0.04 µM; in experiment [2], 0.04 µM; in experiment [3], 0.046 µM; in experiment [4] it was 0.042 µM.
